Measurements as given in patent US7919295B2, “Polyol oxidases” (Danisco US Inc., priority 2006, dated 2011).

Legend:
[1] = cited from earlier work
[2] = Stability and bleaching performance of SOx in HDL laundry wash conditions
From the text: In this Example, methods to determine the stability and bleaching performance of SOx (produced as described above) in AATCC liquid detergent laundry wash conditions are described. In these experiments, AATCC standard detergent (American Association of Textile Chemists and Colorists Heavy Duty Liquid Detergent Version 2003 without brightener; key components include linear alkane sulfonate, alcohol ethoxylate, propanediol, citric acid, fatty acid, castic soda and water; Testfabrics) was used.
Three bleachable cotton swatches with juice (STC CFT CS-15), wine (STC CFT CS-3), and tea (STC CFT BC-3) were used. The swatches were cut into 15 mm circles with a textile punch (Model B equipped with a ⅝″ die cutter; Model 93046; NAEF).
Single swatch disks were placed into each well of a 24-well microplate (Costar 3526). One (1) ml of washing solution pH 8, containing per liter, 1.5 ml AATCC HDL detergent, 75-100 mM sorbitol, 6 gpg hardness (diluted from stock 15000 gpg hardness solution containing 1.735 M calcium chloride and 0.67 M magnesium chloride), and 0.05% TAED (tetraacetylethylenediamine, Fluka) was added to each well. Five to fifty (5-50 ul) microliters of partially purified sorbitol oxidase or sorbitol oxidase obtain from a late fermentation run (108 hr EFT “effective fermentation time”) produced as described in Examples 1 and 2, were added with a positive displacement pipette to 3-8 wells in one column. The control wells contained no enzyme. The microplate was covered with a plastic lid and aluminum foil and incubated at 37° C. with 100 rpm gentle rotation for 14 hr. […]
One hundred microliters (100 ul) of 0.1 mM sodium carbonate were added to each well to elevate the pH to 10. […] The disks were inspected visually and then analyzed with a Reflectometer CR-200 (Minolta) calibrated on a standard white tile. The average L values were calculated as was the percent soil release (% SR=100%×(Final reflectance-Initial reflectance)/(Reflectance of a white standard-Initial reflectance). Graphs showing the results of these experiments are provided in FIGS. 5-8.

[3] = Substrate range study: SCO6147 SOx activity on D-sorbitol versus D-xylitol; format: biochemical, Streptomyces lividans; conditions: SOx transformed in S. lividans; substrates 50 mM, pH 7.0
Protocol: Sorbitol oxidase obtained using the methods described in Example 1, was tested for finding its activity with various polyol substrates. All substrates used in the assay were 50 mM in 10 mM phosphate buffer pH 7.0. The relative activity using sorbitol as (++++++=100%) is shown below in Table 3.

B1: sorbitol oxidase from Streptomyces species H-7775: sorbitol oxidase of Streptomyces species H-7775, Genbank AB000519, 420 amino acids (protein)
chain: MTPAEKNWAGNITFGAKRLCVPRSVRELRETVAASGAVRPLGTRHSFNTVADTSGDHVSLAGLPRVVDIDVPGRAVSLSAGLRFGEFAAELHARGLALANLGSLPHISVAGAVATGTHGSGVGNRSLAGAVRALSLVTADGETRTLRRTDEDFAGAVVSLGALGVVTSLELDLVPAFEVRQWVYEDLPEATLAARFDEVMSAAYSVSVFTDWRPGPVGQVWLKQRVGDEGARSVMPAEWLGARLADGPRHPVPGMPAGNCTAQQGVPGPWHERLPHFRMEFTPSNGDELQSEYFVARADAVAAYEALARLRDRIAPVLQVSELRTVAADDLWLSPAHGRDSVAFHFTWVPDAAAVAPVAGAIEEALAPFGARPHWGKVFSTAPEVLRTLYPRYADFEELVGRHDPEGTFRNAFLDRYFRR
modifications: Streptomyces H-7775
notes: sorbitol oxidase of Streptomyces species H-7775, Genbank AB000519, 420 amino acids
[1]; 24 hours at 30° C.
  pH range in which enzyme is stable: 7.5-10 pH
[1]; at pH 7.5
  optimum temperature: 50 °C

B2: sorbitol oxidase: partially purified sorbitol oxidase or fermentation broth cell lysate (108 hr EFT) used for biobleaching (protein)
chain: B1 chain
modifications: Streptomyces H-7775
notes: partially purified sorbitol oxidase or fermentation broth cell lysate (108 hr EFT) used for biobleaching
[2]; AATCC HDL detergent, pH 8, 37° C., 14 hr
  stability in typical liquid detergent system: stable
[2]; in presence of sorbitol mixed with detergent and atmospheric oxygen
  hydrogen peroxide production in detergent: able to produce effective concentration of hydrogen peroxide
[2]; with bleach booster TAED, blueberry, tea and wine stains, FIGS. 5-8
  bleaching of colored stains: able to help bleach

B3: POx of SEQ ID NO:4: sorbitol oxidase of Streptomyces lividans, gene identified from S. coelicolor SCO6147, expressed intracellularly in S. lividans g3s3 (protein)
chain: MGDITVTNWAGNITYTAKELLRPHSLDALRALVADSARVRVLGSGHSFNEIAEPGDGGVLLSLAGLPSVVDVDTAARTVRVGGGVRYAELARVVHARGLALPNMASLPHISVAGSVATGTHGSGVGNGSLASVVREVELVTADGSTVVIARGDERFGGAVTSLGALGVVTSLTLDLEPAYEMEQHVFTELPLAGLDPATFETVMAAAYSVSLFTDWRAPGFRQVWLKRRTDRPLDGFPYAAPAAEKMHPVPGMPAVNCTEQFGVPGPWHERLPHFRAEFTPSSGAELQSEYLMPREHALAALHAMDAIRETLAPVLQTCEIRTVAADAQWLSPAYGRDTVAAHFTWVEDTAAVLPVVRRLEEALVPFAARPHWGKVFTVPAGELRALYPRLADFGALAGALDPAGKFTNAFVRGVLAG
modifications: Streptomyces lividans
notes: sorbitol oxidase of Streptomyces lividans, gene identified from S. coelicolor SCO6147, expressed intracellularly in S. lividans g3s3
[3]
  activity on D-sorbitol relative to D-xylitol: 2.1 times
